Results published in publication PMC8786652 (Cell reports, 2022).

B1: CV3-13 (hIgG1) (antibody, V domains shown)
VH: QVQLQQSGPGLVKPSQTLSLTCTVAGGSISSGTYYWSWIRQPAGKGLEWIGRIYTSGSANYNPSLKSRVTISVDTSKNQFSLRLSSVTAEDTAVYYCAREYSSSYYYFYYMDVWGKGTTVTVSS
VL: AIRMTQSPSSLSASVGDRVTITCQASQDISNYLNWYQQKPGKAPKLLIYVASNLETGVPSRFSGSGFGTDFTFTISSLQPEDIATYYCQQFDNLPYTFGQGTKLEIK
B2: CV3-13 LALA (hIgG1) (antibody, V domains shown)
VH: QVQLQQSGPGLVKPSQTLSLTCTVAGGSISSGTYYWSWIRQPAGKGLEWIGRIYTSGSANYNPSLKSRVTISVDTSKNQFSLRLSSVTAEDTAVYYCAREYSSSYYYFYYMDVWGKGTTVTVSS
VL: AIRMTQSPSSLSASVGDRVTITCQASQDISNYLNWYQQKPGKAPKLLIYVASNLETGVPSRFSGSGFGTDFTFTISSLQPEDIATYYCQQFDNLPYTFGQGTKLEIK
B3: CV3-13 […] (hIgG1) (antibody, V domains shown)
VH: QVQLQQSGPGLVKPSQTLSLTCTVAGGSISSGTYYWSWIRQPAGKGLEWIGRIYTSGSANYNPSLKSRVTISVDTSKNQFSLRLSSVTAEDTAVYYCAREYSSSYYYFYYMDVWGKGTTVTVSS
VL: AIRMTQSPSSLSASVGDRVTITCQASQDISNYLNWYQQKPGKAPKLLIYVASNLETGVPSRFSGSGFGTDFTFTISSLQPEDIATYYCQQFDNLPYTFGQGTKLEIK

Key:
[1] = target: SARS-CoV-2 S1 domain C-His tag protein, from HEK293 cells (SARS-CoV-2, Wuhan-Hu-1 (strain not …, UniProt P0DTC2)); test: SPR
[2] = target: SARS-CoV-2 Spike on CEM.NKr-Spike cells (SARS-CoV-2, Wuhan-Hu-1 (assumed for the …, UniProt P0DTC2)); test: flow cytometry on cells
[3] = target: SARS-CoV-2 Spike WT (Wuhan-Hu-1 reference strain) (SARS-CoV-2, Wuhan-Hu-1, UniProt P0DTC2); test: flow cytometry on cells

Binder | binding result [1] | binding result [2] | binding result [3]
B1 | binds | binds | binds
B2 |  | binds | binds
B3 |  | binds | binds
